Drawing on PMC4335073, this text covers RRV entry into HEK 293T cells for 1 substance.

This test addresses Ross River virus (RRV), WT T48 strain, UV-inactivated virus coated on plates (Ross River virus, strain T48).

With “recombinant human PTX3 N-terminal fragment (domain or fragment)”, the RRV entry into HEK 293T cells at 0 and 6 hpi (flow cytometry with anti-alphavirus antibody), RRV pre-incubated with the PTX3 fragment, compared with full-length rhPTX3 (% less efficient than full-length rhPTX3) was determined as 30.
